Data published in publication PMC9499943 (Nature Communications, 2022).

B1: CoV2-14 (antibody, V domains shown)
VH: EVQLQQSGPGLVKPSQTLSLTCAISGDSVSSNSAAWNWIRQSPSRGLEWLGRTYYRSKWYNDYAVSVKSRITINPDTSKNQFSLQLNSVTPEDTAVYYCAREEQQLVHDYYYYGMDVWGQGTMVTVSS
VL: QAVVTQPASVSGSPGQSITISCTGTSSDIGAYNYISWYQQHPGKAPKLIIYEVSNRPSGISYRFSGSKSGNTASLTISGLQAEDEANYYCSSYAGSISFGGGTKVTVL
B2: CoV2-14 (antibody, V domains shown)
VH: B1 VH
VL: B1 VL
B3: CoV2-06 (antibody, V domains shown)
VH: QVELQESGPGLVKPSGTLSLTCAVSGGSISSNNWWTWVRQPPGKGLEWIGEIHHSGGTNYNPSLKSRVTMSVDKSKNQFSLNLYSVTAADTAVYYCTRDRAGGTYSGFDFWGQGTLVTVSS
VL: QAVVTQPASVSGSPGQSITISCTGTSSDVGGYNYVSWYQQHPGKAPKLMIYDVSNRPSGVSNRFSGSKSGNTASLTISGLQAEDEADYYCSSYTSSSTVVFGGGTKVTVL
B4: CoV2-06 (antibody, V domains shown)
VH: B3 VH
VL: B3 VL

Key:
Assay in all cases: BLI
Details in all cases: both partners purified
[1] = biological target: His-tagged RBD (RBD-His) protein of SARS-CoV-2 (SARS-CoV-2, wild type (Wuhan-Hu-1 …, UniProt P0DTC2))
[2] = biological target: His-tagged RBD (RBD-His) protein of SARS-CoV-2 (SARS-CoV-2, wild type (Wuhan-Hu-1 …, UniProt P0DTC2)); remark: listed apart in the source
[3] = biological target: Fc-tagged wild-type RBD (RBD-Fc) (SARS-CoV-2, UniProt P0DTC2)

Row | Binder | Kd [1] | koff [1] | kon [1] | other [2] | IC50 [3]
1 | B1 | 1.18 nM | 0.000895 s⁻¹ | 761000 M⁻¹ s⁻¹ |  | 
2 | B2 |  |  |  | 2 fold | 10.6 nM
3 | B3 | 4.14 nM | 0.000695 s⁻¹ | 168000 M⁻¹ s⁻¹ |  | 
4 | B4 |  |  |  | 46 fold | 39.8 nM
